The text below walks through data of US5013542A, “Method to inhibit adhesion of disease-causing microorganisms to teeth” (Forsyth Dental Infirmary for Children, priority 1988, dated 1991).

What all share (assay): Adhesion of radioactively labeled bacteria to treated hydroxyapatite (HA)
Common to all, as to format: cell-based

In one assay the test system is Actinomyces viscosus. Conditions: HA treated with the protein/peptide, saliva-treated HA = 100%. As to the method: (§1) PRP-1 and PRP-1(Tl) were investigated for their abilities to promote adhesion of bacteria to HA. Essentially, the method is to treat HA samples with nothing (negative control), saliva (positive control), or the respective proteins or peptides. The excess agent is removed by washing, and suspensions of radioactively labeled bacteria are added to the treated HA. After a suitable time, the excess bacteria are removed by washing and those remaining adsorbed to the HA are counted in a scintillation counter. In the table of results, bacterial adsorption to saliva-treated HA is considered to be 100%, and adsorption to PRP-1 or PRP-1(Tl)-treated HA expressed as a percentage of this reference value. This approach is necessary because of the diverse behaviors of different bacteria.

The next assay deals with Bacteroides gingivalis. As to the method:
as §1

In another assay the test system is Streptococcus mitis. The settings on record: HA treated with the protein/peptide, saliva-treated HA = 100%. As for the experimental part:
as §1

The subject of another assay is Streptococcus mutans. Conditions: HA treated with the protein/peptide, saliva-treated HA = 100%. As for the experimental part: as §1
A further assay relates to Streptococcus sanguis. As to the method: as §1

B1: PRP-1: acidic proline-rich phosphoprotein derived from human saliva, 150 residues; sequence shown in the diagram (protein, UniProt P02810 17-166, looked up)
Salivary acidic proline-rich …: QDLDEDVSQEDVPLVISDGGDSEQFIDEERQGPPLGGQQSQPSAGDGNQNDGPQQGPPQQGGQQQQGPPPPQGKPQGPPQQGGHPPPPQGRPQGPPQQGGHPRPPRGRPQGPPQQGGHQQGPPPPPPGKPQGPPPQGGRPQGPPQGQSPQ
As to B1, the “PERCENT ADHESION COMPARED TO SALIVA-TREATED HA” value was 105% with Actinomyces viscosus; 335% with Bacteroides gingivalis (Bacteroides gingivalis, HA treated with the protein/peptide, saliva-treated HA = 100%); 38% in the assay with Streptococcus mitis; 81% with Streptococcus mutans; 144% in the assay on Streptococcus sanguis (Streptococcus sanguis, HA treated with the protein/peptide, saliva-treated HA = 100%). Moreover, the “adhesion of organism to treated HA (in words)” value in the assay on Bacteroides gingivalis (B. gingivalis, versus saliva-treated HA) was “higher than adhesion to saliva-treated HA”; with Streptococcus sanguis (S. sanguis, versus saliva-treated HA) it was “higher than adhesion to saliva-treated HA”.
